In US20070218504A1, “HUMAN LEPTIN-DERIVED POLYPEPTIDES AND USES THEREOF” (UNIVERSITY OF PITTSBURGH, priority 2006, published 2007):
Entries after “also recorded” stand apart in the source; their conditions may differ. Values belong to the molecule of their own block, whether it stands above or below them.

What was measured:
human CRP = target: T1, human CRP (Homo sapiens, UniProt P02741); test: Polypeptide blocking of human CRP inhibition of leptin-stimulated STAT3 tyrosine phosphorylation in HEK-293 cells over-expressing OB-Rb; type: cell-based; settings: for restoration of leptin-stimulated STAT3 activation in presence of human CRP, Example 8 comparison: human CRP 8 μg/ml, human leptin 2 nM, 1 hour pre-incubation, up to 0.8 μM (800 nM); for effect of polypeptide by itself on STAT phosphorylation: control, polypeptide alone; for blocking of the inhibitory effect of human CRP on leptin signaling (STAT3 tyrosine phosphorylation): polypeptide pre-incubated with human CRP 30 minutes, then human leptin 45 minutes
T1 construct: purchased CHEMICON or EMD Biosciences
T1 sequence (P02741 19-224): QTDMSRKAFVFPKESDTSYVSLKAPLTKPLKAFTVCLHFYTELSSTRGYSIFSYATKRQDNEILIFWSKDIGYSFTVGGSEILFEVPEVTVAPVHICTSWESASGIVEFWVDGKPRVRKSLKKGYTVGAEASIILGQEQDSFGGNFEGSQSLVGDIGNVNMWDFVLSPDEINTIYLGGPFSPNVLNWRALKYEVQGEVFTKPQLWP
Protocol: In the in vitro experiment, each of these polypeptide was pre-incubated with human CRP for 30 minutes before being mixed with human leptin for an additional 45 minutes. The resultant mixture was then added to the HEK-293 cells over-exprssing the long form leptin receptors, OB-Rb. After a 30-minute incubation, the cells were harvested in a protein extraction buffer (18). The signaling of leptin in the cells, measured by its ability to stimulate tyrosine phosphorylation on STAT3 in a western blot assay, was evaluated (see FIGS. 8, 9, 10 for polypeptides B, C1 and E, respectively).
Pursuant to an in vitro protocol similar to that described in Example 6, a hexamer disclosed in U.S. Pat. No. 6,777,388, NH2—S—C—H-L-P—W—COOH (SEQ ID NO:18), was pre-incubated with human CRP (8 μg/ml) and human leptin (2 nM) for 1 hour. The resultant mixture then was added to HEK-293 cells that over-expressed the long form leptin receptor, OB—Rb. After a 30-minute incubation, the cells were harvested in a protein extraction buffer. To evaluate signaling of human leptin in the cells, tyrosine phosphorylation on STAT3 was measured in a western blot assay.

[1] = test system: tyrosine phosphorylation of STAT3; test: Leptin-induced tyrosine phosphorylation of STAT3 in HEK293 cells over-expressing OB-Rb in the presence of CRP (Western blot); type: cell-based, human; settings: separate control, concentrations much higher than CRP
Protocol: To determine if the interaction between CRP and leptin dampens the cellular actions of leptin, the ability of leptin to stimulate tyrosine phosphorylation of STAT3 and PI3-kinase activity was assessed in the presence of CRP in vitro. HEK293 cells over-expressing OB-Rb were serum starved for 2 hours before addition of leptin and CRP (CHEMICON or EMD Biosciences). Leptin, in the presence or absence of CRP, was pre-incubated in μ-MEM (with additional 1 mM Ca^2+) for 30 minutes at 37° C. before being applied to the cells. After a 30-minute incubation with leptin, the cells were harvested in lysis buffer (18). The resultant protein extract was subjected to a Western blot analysis using an anti-phospho-STAT3 specific antibody (Cell Signaling, Beverly, Mass.). For studies involving primary hypothalamic neurons, the hypothalamus from rats was surgically isolated immediately after euthanasia, and placed in the DMEM for incubation with leptin in the presence or absence of CRP.

ob/ob mice = test: Intracerebralventricular (i.c.v.) injection of human CRP and leptin in ob/ob mice, food intake and body weight; type: in vivo, mouse
[2] = mouse leptin i.c.v. after human CRP

restoration of leptin-stimulated STAT3 activation in presence of human CRP, Example 8 comparison (human CRP): failed to restore
Molecule: H-WPLHCS-OH [D-form, reference compound]

restoration of leptin-stimulated STAT3 activation in presence of human CRP, Example 8 comparison (human CRP): unable to block
restoration of leptin-stimulated STAT3 activation in presence of human CRP, Example 8 comparison (human CRP; listed as L-form): failed to restore
Molecule: NH2—S—C—H-L-P—W—COOH (H-SCHLPW-OH) [hexamer, hexamer disclosed in U.S. Pat. No. 6,777,388, reference compound]

concentration at which the maximal effect can be reached (human CRP; FIG. 9A): 50 nM
effect of higher concentration (human CRP; FIG. 9B): does not further improve its effect
relative effectiveness in blocking the CRP activity on leptin (human CRP; compared with the other polypeptides): more effective at a lower concentration
Molecule: VSSKQKVTGLDFIPGLHPILTLSKM (listed as Homo sapiens) [polypeptide C1, chemically synthesized human leptin-derived polypeptide, residues 51 to 75]
effect of polypeptide by itself on STAT phosphorylation (human CRP): did not induce any changes; also recorded: does not have any effect
blocking of the inhibitory effect of human CRP on leptin signaling (STAT3 tyrosine phosphorylation) (human CRP): able to block the inhibitory effect of human CRP and to restore leptin signaling

Second part, the molecule before the results:

Molecule: KVQDDTKTLIKTIVTRINDISHTQS (listed as Homo sapiens) [polypeptide B, chemically synthesized human leptin-derived polypeptide, residues 26 to 50]
effect of polypeptide by itself on STAT phosphorylation (human CRP): did not induce any changes; also recorded: does not have any effect
blocking of the inhibitory effect of human CRP on leptin signaling (STAT3 tyrosine phosphorylation) (human CRP): able to block the inhibitory effect of human CRP and to restore leptin signaling

Molecule: human serum amyloid P component: control serum protein circulating at much higher concentrations than CRP [reference compound]
effect of control serum protein on leptin-induced STAT3 phosphorylation / leptin signaling [1]: did not influence leptin signaling

B1: Mouse leptin: mouse recombinant leptin (protein)
chain: VPIQKVQDDTKTLIKTIVTRINDISHTQSVSAKQRVTGLDFIPGLHPILSLSKMDQTLAVYQQVLTSLPSQNVLQIANDLENLRDLLHLLAFSKSCSLPQTSGLQKPESLDGVLEASLYSTEVVALSRLQGSLQDILQQLDVSPEC
decrease of food intake, PBS pre-injection (ob/ob mice; mouse leptin i.c.v. after PBS): 32.9%
reduction of body weight, PBS pre-injection (ob/ob mice; mouse leptin i.c.v. after PBS): 1.80%
decrease of food intake, human CRP pre-injection (ob/ob mice; [2]): 32.4%
reduction of body weight, human CRP pre-injection (ob/ob mice; [2]): 1.76%
